Assay results reported in PMC11585080 (ACS nano, 2019).

What was measured:
Format in all cases: physicochemical
[1] = ThT fluorescence assay of Aβ1–40 aggregation
[2] = Analytical ultracentrifugation
[3] = Phase diagram of Aβ1–40 aggregation in water/alcohol mixtures
[4] = representatively selected peak, 2% HFIP, 25 °C
[5] = 6% HFIP, with sonication, 37 °C
[6] = without TFE, with sonication, 10 μM Aβ1–40, 10 mM sodium phosphate buffer pH 7.5, 100 mM NaCl, 5 μM ThT, 37 °C, three independent measurements

Aβ1–40 oligomers: Aβ1–40 dissolved in 100% HFIP, diluted 10-fold with water; ThT-negative β-structured spherical oligomers
time of saturation of ThT fluorescence increase ([1]; oligomers + 10 mM sodium phosphate buffer pH 7.5, 100 mM NaCl, quiescent, 37 °C): ~ 35 h
increase in ThT intensity ([1]; oligomers + NaCl alone (50–2000 mM), no pH shift, continuous shaking): no increase
change in ThT fluorescence intensity of oligomer solution ([1]; oligomers without buffer (pH ~4), ~2 days without agitation, 37 °C): no changes
molecular weight of small oligomers ([2]; calculated from s-value ~5.2 S): ~ 70 kDa
molecular weight of large oligomers ([2]; calculated from s-value ~24.7 S): ~ 740 kDa
number of Aβ1–40 peptides forming small oligomers ([2]; from molecular weight ~70 kDa): ~ 17
number of Aβ1–40 peptides forming large oligomers ([2]; from molecular weight ~740 kDa): ~ 170
sedimentation coefficient (s-value), large oligomers [2, 4]: ~ 24.7 S
sedimentation coefficient (s-value), small oligomers [2, 4]: ~ 5.2 S

amyloid-β (1–40) [Aβ1–40]
solubility state at high alcohol concentrations ([3]; >40% TFE and >30% HFIP, regardless of extensive sonication): remained soluble
amyloid-forming region ([3]; water/TFE mixtures, with sonication, 100 mM NaCl, pH 7.5): 0–25 % TFE
lag time before sigmoidal increase in ThT fluorescence ([1]; 2% HFIP, quiescent, 10 μM, pH 7.5, 100 mM NaCl, 37 °C): ~ 6 h
conversion rate constant (protofibrils to amyloid fibrils) [1, 5]: 2.21 ± 0.85 h⁻¹
time at which the ThT reaction was completed [1, 5]: ~ 2 h
change in intensity of ThT fluorescence ([1]; 6% HFIP, without sonication, after ~35 h, 37 °C): did not change
ThT fluorescence during incubation ([1]; 50% HFIP, without sonication, test tubes, pH 7.5, 100 mM NaCl, 37 °C): maintained a very low intensity
effect of sonication on ThT fluorescence ([1]; greater than 40% TFE, with sonication, 10 μM, pH 7.5, 100 mM NaCl, 37 °C): did not affect the ThT fluorescence
change in ThT-based kinetics and CD spectra ([1]; more than 25% TFE, quiescent, 10 μM, pH 7.5, 100 mM NaCl, 37 °C): no change
change in ThT fluorescence intensity after incubation ([1]; without TFE, quiescent, incubation ~2 days, 10 μM, pH 7.5, 100 mM NaCl, 37 °C): no change
elongation rate constant of amyloid fibrillation (ThT) [1, 6]: ~ 10 h^−1
lag time of amyloid fibrillation (ThT) [1, 6]: ~ 1 h
